Results on three molecules are retold here after article PMC5847570, “Structural model of human dUTPase in complex with a novel proteinaceous inhibitor”.

In general, stoichiometry N refers to a count of units in the complex or per binding partner.

Series [1] addresses Staphylococcal repressor protein Stl_(SaPIBov1) (Staphylococcus aureus) (UniProt Q9F0J8). Briefly: native MS; ESI-QTOF, positive mode; 5 mM NH4HCO3 pH 7.5; hDUT, Stl or both at ca. 0.5 µM monomer.
For series [2], the target named is human deoxyuridine 5′-triphosphate nucleotidohydrolase (dUTPase), nuclear isoform (human). Described as above.
Series [3] shares this target. Briefly: SAXS; batch measurements of hDUT (0.2-2.0 mg/mL) and of Stl (0.2-0.9 mg/mL) alone; 50 mM HEPES pH 7.5, 300 mM NaCl, 5 mM MgCl2; 20 °C in the text, 283 K in Table 1.
The target of series [4] is Staphylococcal repressor protein Stl_(SaPIBov1) (Staphylococcus aureus) (UniProt Q9F0J8). Briefly: SEC-SAXS; hDUT:Stl complex (100 µL at ~8 mg/ml) on an S200 Increase 10/300 column in 50 mM HEPES pH 7.5, 300 mM NaCl, 5 mM MgCl2, in line with SAXS; two regions of the peak analysed. (In general: SEC sorts molecules by how far they enter the pores of the column.)
Series [5] addresses human deoxyuridine 5′-triphosphate nucleotidohydrolase (dUTPase), nuclear isoform (human). The series is described as above.
Series [6] deals with Staphylococcal repressor protein Stl_(SaPIBov1) (Staphylococcus aureus) (UniProt Q9F0J8). Briefly: ITC; Stl in the cell, hDUT in the syringe; 20 °C; 20 mM HEPES pH 7.5, 300 mM NaCl, 5 mM MgCl2, 1 mM TCEP; one set of independent sites; mean and SD of three measurements; concentrations of protomers; apparent affinity. Background: ITC needs no label: the signal is the heat of the interaction.

The target in series [7] is human deoxyuridine 5′-triphosphate nucleotidohydrolase (dUTPase), nuclear isoform (human).
The target in the next series is Stl (StlSaPIBov1) (Staphylococcus aureus pathogenicity …, UniProt Q9F0J8 1-267). Briefly: EMSA; no hDUT; 100 mM NaCl; […]; binding buffer pH not stated. The conditions noted are these: protein: recombinant; tags: GST-tag cleaved by thrombin, His-tag removed; N-terminal vector-derived extension remains; chain copies: 2; blunt.

As for “human deoxyuridine 5′-triphosphate nucleotidohydrolase (dUTPase), nuclear isoform (enzyme)”, in series [1], the stoichiometry N (hDUT:Stl (3:2)) is 1.5. Moreover, the stoichiometry N in series [2], in series [3] and in series [5] was 3 throughout. The same molecule gave a stoichiometry N (hDUT:Stl (3:2, region 2)) in series [4] of 1.5. In series [4], the stoichiometry N (hDUT:Stl (3:3, region 1)) is 1. The Kd in series [6] is 230 nM. The stoichiometry N (hDUT protomer per Stl protomer) in series [6] was determined as 1.27.
“Staphylococcal repressor protein Stl_(SaPIBov1) (from UniProt Q9F0J8 1-267) (natural protein)” yielded a maximal inhibition of hDUT catalytic activity by Stl in series [7] of 70%.

B1: interR 43 bp (dsDNA)
DNA 1: ATGTTGAAATAAATATCTCGATGTGAGATAATTTGTTCGAGGA
DNA 2: TCCTCGAACAAATTATCTCACATCGAGATATTTATTTCAACAT
As to B1, in the series with Stl (StlSaPIBov1), the binding result is listed as “binds”.
